B1: Carbonic anhydrase 4 (Homo sapiens), P22748 (parent)
chain: MRMLLALLALSAARPSASAESHWCYEVQAESSNYPCLVPVKWGGNCQKDRQSPINIVTTKAKVDKKLGRFFFSGYDKKQTWTVQNNGHSVMMLLENKASISGGGLPAPYQAKQLHLHWSDLPYKGSEHSLDGEHFAMEMHIVHEKEKGTSRNVKEAQDPEDEIAVLAFLVEAGTQVNEGFQPLVEALSNIPKPEMSTTMAESSLLDLLPKEEKLRHYFRYLGSLTTPTCDEKVVWTVFREPIQLHREQILAFSQKLYYDKEQTVSMKDNVRPLQQLGQRTVIKSGAPGRPLPWALPALLGPMLACLLAGFLR
partner: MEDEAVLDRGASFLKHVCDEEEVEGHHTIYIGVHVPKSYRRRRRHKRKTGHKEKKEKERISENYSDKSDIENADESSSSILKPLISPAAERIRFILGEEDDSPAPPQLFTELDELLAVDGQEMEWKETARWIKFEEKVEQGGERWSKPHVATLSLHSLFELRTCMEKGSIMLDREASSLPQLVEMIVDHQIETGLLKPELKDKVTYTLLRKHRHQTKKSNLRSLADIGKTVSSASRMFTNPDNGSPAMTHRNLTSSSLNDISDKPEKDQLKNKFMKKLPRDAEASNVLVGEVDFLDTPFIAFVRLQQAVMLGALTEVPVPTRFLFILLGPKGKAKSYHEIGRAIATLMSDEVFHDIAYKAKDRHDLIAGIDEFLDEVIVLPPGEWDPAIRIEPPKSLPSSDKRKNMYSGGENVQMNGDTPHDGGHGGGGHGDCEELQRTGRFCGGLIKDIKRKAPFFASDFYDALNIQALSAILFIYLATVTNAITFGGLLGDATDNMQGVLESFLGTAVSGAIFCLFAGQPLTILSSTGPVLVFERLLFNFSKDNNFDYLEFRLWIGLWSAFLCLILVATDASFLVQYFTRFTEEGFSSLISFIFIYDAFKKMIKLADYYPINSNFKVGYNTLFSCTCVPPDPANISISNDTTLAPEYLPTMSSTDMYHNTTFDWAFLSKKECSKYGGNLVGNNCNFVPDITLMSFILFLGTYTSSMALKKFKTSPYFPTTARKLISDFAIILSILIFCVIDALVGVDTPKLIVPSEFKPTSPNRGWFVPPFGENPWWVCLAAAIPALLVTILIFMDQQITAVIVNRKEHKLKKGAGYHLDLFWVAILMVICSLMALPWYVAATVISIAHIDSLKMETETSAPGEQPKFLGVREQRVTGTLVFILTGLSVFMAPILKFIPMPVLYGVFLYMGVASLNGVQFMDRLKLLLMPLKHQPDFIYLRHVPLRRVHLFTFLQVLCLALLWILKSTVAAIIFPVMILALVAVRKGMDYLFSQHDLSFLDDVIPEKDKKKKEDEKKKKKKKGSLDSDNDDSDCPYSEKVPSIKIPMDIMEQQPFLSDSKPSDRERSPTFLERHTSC

Variants of: B1
Conditions: with s4a4_human SLC4A4, Q9Y6R1

Variant	effect of a mutation on the interaction
R14W	decreasing interaction

— IntAct's records for PubMed 15563508
